4 molecules from patent publication US20140087995A1 (published 2014) can be followed below.

One may read the IC50 as the point on the concentration scale where inhibition reaches its midpoint.

The labels stand for the following.
B1: N^ε1-[(4S)-4-carboxy-4-[[(4S)-4-carboxy-4-(19-carboxynonadecanoylamino)butanoyl]amino]butanoyl]-[Arg17,Pro21,Pro27,His34]-h-amylin (peptide)
peptide: K([γGlu-γGlu-C20 diacid])CNTATCATQRLANFLRHSSPNFGAIPSSTNVGHNTY-NH2
modifications: disulfide 2-7; N-terminus assumed
SMILES: CC[C@H](C)[C@H](NC(=O)[C@H](C)NC(=O)CNC(=O)[C@H](Cc1ccccc1)NC(=O)[C@H](CC(N)=O)NC(=O)[C@@H]1CCCN1C(=O)[C@H](CO)NC(=O)[C@H](CO)NC(=O)[C@H](Cc1c[nH]cn1)NC(=O)[C@H](CCCNC(=N)N)NC(=O)[C@H](CC(C)C)NC(=O)[C@H](Cc1ccccc1)NC(=O)[C@H](CC(N)=O)NC(=O)[C@H](C)NC(=O)[C@H](CC(C)C)NC(=O)[C@H](CCCNC(=N)N)NC(=O)[C@H](CCC(N)=O)NC(=O)[C@@H](NC(=O)[C@H](C)NC(=O)[C@@H]1CSSC[C@H](NC(=O)[C@@H](N)CCCCNC(=O)CC[C@H](NC(=O)CC[C@H](NC(=O)CCCCCCCCCCCCCCCCCCC(=O)O)C(=O)O)C(=O)O)C(=O)N[C@@H](CC(N)=O)C(=O)N[C@@H]([C@@H](C)O)C(=O)N[C@@H](C)C(=O)N[C@@H]([C@@H](C)O)C(=O)N1)[C@@H](C)O)C(=O)N1CCC[C@H]1C(=O)N[C@@H](CO)C(=O)N[C@@H](CO)C(=O)N[C@H](C(=O)N[C@@H](CC(N)=O)C(=O)N[C@H](C(=O)NCC(=O)N[C@@H](Cc1c[nH]cn1)C(=O)N[C@@H](CC(N)=O)C(=O)N[C@H](C(=O)N[C@@H](Cc1ccc(O)cc1)C(N)=O)[C@@H](C)O)C(C)C)[C@@H](C)O
notes: also called compound 86
B2: N^ε1-[(4S)-4-carboxy-4-(19-carboxynonadecanoylamino)butanoyl]-[Arg14,Arg17,Pro21,Pro27]-h-amylin (peptide)
peptide: K([γGlu-C20 diacid])CNTATCATQRLARFLRHSSPNFGAIPSSTNVGSNTY-NH2
modifications: disulfide 2-7; N-terminus assumed
SMILES: CC[C@H](C)[C@H](NC(=O)[C@H](C)NC(=O)CNC(=O)[C@H](Cc1ccccc1)NC(=O)[C@H](CC(N)=O)NC(=O)[C@@H]1CCCN1C(=O)[C@H](CO)NC(=O)[C@H](CO)NC(=O)[C@H](Cc1c[nH]cn1)NC(=O)[C@H](CCCNC(=N)N)NC(=O)[C@H](CC(C)C)NC(=O)[C@H](Cc1ccccc1)NC(=O)[C@H](CCCNC(=N)N)NC(=O)[C@H](C)NC(=O)[C@H](CC(C)C)NC(=O)[C@H](CCCNC(=N)N)NC(=O)[C@H](CCC(N)=O)NC(=O)[C@@H](NC(=O)[C@H](C)NC(=O)[C@@H]1CSSC[C@H](NC(=O)[C@@H](N)CCCCNC(=O)CC[C@H](NC(=O)CCCCCCCCCCCCCCCCCCC(=O)O)C(=O)O)C(=O)N[C@@H](CC(N)=O)C(=O)N[C@@H]([C@@H](C)O)C(=O)N[C@@H](C)C(=O)N[C@@H]([C@@H](C)O)C(=O)N1)[C@@H](C)O)C(=O)N1CCC[C@H]1C(=O)N[C@@H](CO)C(=O)N[C@@H](CO)C(=O)N[C@H](C(=O)N[C@@H](CC(N)=O)C(=O)N[C@H](C(=O)NCC(=O)N[C@@H](CO)C(=O)N[C@@H](CC(N)=O)C(=O)N[C@H](C(=O)N[C@@H](Cc1ccc(O)cc1)C(N)=O)[C@@H](C)O)C(C)C)[C@@H](C)O
notes: also called compound 83
B3: N^ε1-[(4S)-4-carboxy-4-(19-carboxynonadecanoylamino)butanoyl]-[His14,Arg17,Pro21,Pro27,Arg34]-h-amylin (peptide)
peptide: K([γGlu-C20 diacid])CNTATCATQRLAHFLRHSSPNFGAIPSSTNVGRNTY-NH2
modifications: disulfide 2-7; N-terminus assumed
SMILES: CC[C@H](C)[C@H](NC(=O)[C@H](C)NC(=O)CNC(=O)[C@H](Cc1ccccc1)NC(=O)[C@H](CC(N)=O)NC(=O)[C@@H]1CCCN1C(=O)[C@H](CO)NC(=O)[C@H](CO)NC(=O)[C@H](Cc1c[nH]cn1)NC(=O)[C@H](CCCNC(=N)N)NC(=O)[C@H](CC(C)C)NC(=O)[C@H](Cc1ccccc1)NC(=O)[C@H](Cc1c[nH]cn1)NC(=O)[C@H](C)NC(=O)[C@H](CC(C)C)NC(=O)[C@H](CCCNC(=N)N)NC(=O)[C@H](CCC(N)=O)NC(=O)[C@@H](NC(=O)[C@H](C)NC(=O)[C@@H]1CSSC[C@H](NC(=O)[C@@H](N)CCCCNC(=O)CC[C@H](NC(=O)CCCCCCCCCCCCCCCCCCC(=O)O)C(=O)O)C(=O)N[C@@H](CC(N)=O)C(=O)N[C@@H]([C@@H](C)O)C(=O)N[C@@H](C)C(=O)N[C@@H]([C@@H](C)O)C(=O)N1)[C@@H](C)O)C(=O)N1CCC[C@H]1C(=O)N[C@@H](CO)C(=O)N[C@@H](CO)C(=O)N[C@H](C(=O)N[C@@H](CC(N)=O)C(=O)N[C@H](C(=O)NCC(=O)N[C@@H](CCCNC(=N)N)C(=O)N[C@@H](CC(N)=O)C(=O)N[C@H](C(=O)N[C@@H](Cc1ccc(O)cc1)C(N)=O)[C@@H](C)O)C(C)C)[C@@H](C)O
notes: also called compound 85
B4: N^ε1-[(4S)-4-carboxy-4-[[(4S)-4-carboxy-4-(19-carboxynonadecanoylamino)butanoyl]amino]butanoyl]-[Glu14,Arg17,Pro21,Pro27,Arg35]-h-amylin (peptide)
peptide: K([γGlu-γGlu-C20 diacid])CNTATCATQRLAEFLRHSSPNFGAIPSSTNVGSRTY-NH2
modifications: disulfide 2-7; N-terminus assumed
SMILES: CC[C@H](C)[C@H](NC(=O)[C@H](C)NC(=O)CNC(=O)[C@H](Cc1ccccc1)NC(=O)[C@H](CC(N)=O)NC(=O)[C@@H]1CCCN1C(=O)[C@H](CO)NC(=O)[C@H](CO)NC(=O)[C@H](Cc1c[nH]cn1)NC(=O)[C@H](CCCNC(=N)N)NC(=O)[C@H](CC(C)C)NC(=O)[C@H](Cc1ccccc1)NC(=O)[C@H](CCC(=O)O)NC(=O)[C@H](C)NC(=O)[C@H](CC(C)C)NC(=O)[C@H](CCCNC(=N)N)NC(=O)[C@H](CCC(N)=O)NC(=O)[C@@H](NC(=O)[C@H](C)NC(=O)[C@@H]1CSSC[C@H](NC(=O)[C@@H](N)CCCCNC(=O)CC[C@H](NC(=O)CC[C@H](NC(=O)CCCCCCCCCCCCCCCCCCC(=O)O)C(=O)O)C(=O)O)C(=O)N[C@@H](CC(N)=O)C(=O)N[C@@H]([C@@H](C)O)C(=O)N[C@@H](C)C(=O)N[C@@H]([C@@H](C)O)C(=O)N1)[C@@H](C)O)C(=O)N1CCC[C@H]1C(=O)N[C@@H](CO)C(=O)N[C@@H](CO)C(=O)N[C@H](C(=O)N[C@@H](CC(N)=O)C(=O)N[C@H](C(=O)NCC(=O)N[C@@H](CO)C(=O)N[C@@H](CCCNC(=N)N)C(=O)N[C@H](C(=O)N[C@@H](Cc1ccc(O)cc1)C(N)=O)[C@@H](C)O)C(C)C)[C@@H](C)O
notes: also called compound 89

Numbered stars: 1 amine (or outer) side, 2 acyl side, 3 side chain; on linkers, the order of the positions; unused ones are H or OH. Bridge positions count the residues as written; N and C are the ends. Side chains are listed from the residue outwards. Ends that are not written are not given here. * marks the point of attachment. C20 diacid = O=C(O)CCCCCCCCCCCCCCCCCCC(=O)*; γGlu = O=C(O)[C@H](CCC(=O)[*:2])N[*:1]

One experiment deals with T1, human amylin receptor (amylin 3(a) receptor: human calcitonin receptor with RAMP-3) (human, UniProt P30988 25-474; O60896 24-148).
T1 construct: whole, on cells; Used as cell membranes of the Amylin 3(a)/CRE-luc BHK cells; the species of RAMP-3 is only implied by the name human amylin receptor; also called hAmylin-R; hAmylinR
T1 sequence (looked up) 1: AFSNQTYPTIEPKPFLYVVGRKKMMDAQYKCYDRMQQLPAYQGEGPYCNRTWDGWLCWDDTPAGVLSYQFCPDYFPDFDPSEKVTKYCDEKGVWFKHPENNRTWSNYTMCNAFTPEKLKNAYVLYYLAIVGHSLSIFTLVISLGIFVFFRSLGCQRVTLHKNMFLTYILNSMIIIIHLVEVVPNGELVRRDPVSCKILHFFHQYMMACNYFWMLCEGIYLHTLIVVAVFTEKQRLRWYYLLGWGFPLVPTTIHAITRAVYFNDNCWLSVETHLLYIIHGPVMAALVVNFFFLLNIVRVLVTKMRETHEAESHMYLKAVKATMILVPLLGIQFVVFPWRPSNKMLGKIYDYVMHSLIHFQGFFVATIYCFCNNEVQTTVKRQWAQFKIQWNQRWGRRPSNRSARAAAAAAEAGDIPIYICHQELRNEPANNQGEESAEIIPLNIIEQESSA
T1 sequence (looked up) 2: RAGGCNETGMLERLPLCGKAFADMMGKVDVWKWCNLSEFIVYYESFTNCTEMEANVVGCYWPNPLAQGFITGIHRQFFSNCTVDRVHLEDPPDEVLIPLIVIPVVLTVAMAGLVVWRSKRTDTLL
Briefly: SPA competition on BHK cell membranes, 125I-rat amylin as radioligand (Assay V). The procedure:
The binding assay was performed using scintillation proximity assay (SPA) beads (RPNQ0001) from PerkinElmer and cell membranes from the Amylin 3(a)/CRE-luc cells (as described in Assay (II)) were used. Membranes were prepared in the following way; the cells were rinsed with PBS and incubated with Versene for approximately 5 min before harvesting. The cells were flushed with PBS and the cell-suspension was centrifuged for 5 min at 1000 rpm. Cells were homogenized (ultrathurrax) in a buffer containing 20 mM Na-HEPES and 10 mM EDTA (pH 7.4) and centrifuged at 20.000 rpm for 15 min. The resulting pellet was resuspended, homogenized and centrifuged (20.000 rpm, 15 min) in a buffer containing 20 mM Na-HEPES and 0.1 mM EDTA (pH 7.4, buffer 2). The resulting pellet was resuspended in buffer 2 and protein concentration was measured (BCA protein Assay, Pierce). The homogenate was kept cold during the whole procedure. The membranes were kept at −80° C. until use. The assay was performed in a 384 well Optiplate (PerkinElmer) in a total volume of 40 ul. Membranes were mixed with SPA beads. Final concentration of membranes 35 ng/μL final and SPA beads was 0.05 mg/well. Test-compounds were dissolved in DMSO and further diluted in assay buffer (50 mM Hepes, pH 7.4, 1 mM CaCl2, 5 mM MgCl₂, 0.1% OA and 0.02% Tween20). […] The final mixture was incubated with shaking at 400 rpm for 120 min at 25° C. prior to centrifugation (1500 rpm, 10 min). Samples were analyzed on TopCounter™ (Packard). The IC₅₀ was calculated using (one site binding competition analysis) GraphPad Prism5 as a measure of receptor affinity.
As to B1, the concentration for half-maximal inhibition (IC50) came to 0.833 nM.
The same measure, in the same setting: in the case of B2 it was 0.939 nM; in that of B3, 0.876 nM; in that of B4, 1.16 nM.

The next experiment concerns the target T2, human calcitonin receptor (human, UniProt P30988 25-474).
T2 construct: whole, on cells; Used as cell membranes; also called hCTR; hCT
T2 sequence (looked up): T1 sequence (looked up) 1
In words: SPA competition on BHK cell membranes, 125I-calcitonin as radioligand (Assay VII). The method in brief:
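BHK hCTR membranes 35 ng/μL + SPA beads 0.05 mg/well; buffer 50 mM Hepes pH 7.4, 1 mM CaCl2, 5 mM MgCl₂, 0.1% OA, 0.02% Tween20. 120 min, 25° C., shaking. Scintillation count; IC50 by one-site binding competition.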
For the molecule B1, the concentration for half-maximal inhibition (IC50) came to 133 nM.
Same read-out and setting: in the case of B2 it was 137 nM.
Take B3: the concentration for half-maximal inhibition (IC50) is 80.4 nM.
As for B4, the concentration for half-maximal inhibition (IC50) worked out at 32.5 nM.

In a further experiment the target is T2, human calcitonin receptor. In words: ratio of hCTR IC50 to hAmylin-R IC50 (reference: human amylin receptor). In outline: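 Competition binding by SPA with cell membranes (35 ng/μL) and SPA beads in 50 mM Hepes pH 7.4 with 1 mM CaCl2, 5 mM MgCl2, 0.1% OA and 0.02% Tween20. Incubated 120 min at 25 °C with shaking, then counted.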
Turning to B1, the “Ratio hCT/hAmylin binding” value amounted to 159.
Consider B2, for which the “Ratio hCT/hAmylin binding” value came to 146.
As for B3, the “Ratio hCT/hAmylin binding” value was 91.8.
On to B4, for which the “Ratio hCT/hAmylin binding” value turned out to be 28.
